Laboratory results as given in paper PMC7870846, “Incorporation of sensing modalities into de novo designed fluorescence-activating proteins” (Nature Communications, 2021).

Tests used:
[1] = Fluorescence intensity assays of mFAP variants; type: biochemical
Protocol: To measure fluorescence intensities of the phenolate form of chromophores, fluorescence was measured on a Synergy Neo2 hybrid multi-mode reader (BioTek) in flat bottom, black polystyrene, non-binding surface 96-well microplates (Corning 3650). Fluorescence intensity was measured in triplicate by exciting at λex = 484 nm and measuring fluorescence emission at λem = 505 nm (or λem = 511 nm for clones harboring the W27 mutation) (Supplementary Fig. 1g, h). The W27 mutation redshifts the peak emission wavelength from λem = ~505 nm to λem = ~511 nm, presumably due to the W27 indole ring donating a hydrogen bond to the imidazolinone moiety of the deprotonated state of DFHBI, which stabilizes the chromophore conjugated π–electron system in the excited state causing the redshift in emission. Fifteen microliters of small-scale purified protein[49] was combined with 185 μL of Na2HPO4-citrate (pH 7.36) buffer supplemented with 150 mM NaCl and 108 nM DFHBI for a final concentration of 100 nM DFHBI. In measuring the excitation spectra from λem = 525 nm of each clone in triplicate (Supplementary Fig. 1i), 30.0 μL of large-scale purified protein[49] was combined with 170 μL of 25.0 mM Tris (pH 8.00) supplemented with 100 mM NaCl and 914 nM DFHBI for a final concentration of 7.77 μM protein and 777 nM DFHBI. In measuring the fluorescence intensity at λex = 484 nm and λem = 509 nm of each clone in triplicate (Supplementary Fig. 1j), 30.0 μL of large-scale purified protein[49] was combined with 170 μL of 25.0 mM Tris (pH 8.00) supplemented with 100 mM NaCl and 653 nM DFHBI for a final concentration of 5.55 μM protein and 555 nM DFHBI. In measuring fluorescence intensity at λex = 468 nm and λem = 530 nm of each clone in technical triplicate (Supplementary Fig. 1k), 24.0 μL of 35.4 µM large-scale purified protein[49] was combined with 1.00 μL of 1.25 µM DFHBI or 1.00 μL of 1.25 µM DFHBI-1T (Lucerna) (from […] chromophore stock solutions dissolved in 0.5% DMSO and 99.5% high-salt Tev cleavage buffer [25.0 mM Tris, 100 mM NaCl, pH 8.00]) for final concentrations of 34.0 μM protein and 50.0 nM chromophore. The mFAP9–DFHBI complex had ~1.1-fold the fluorescence intensity of the mFAP10–DFHBI complex, and the mFAP9–DFHBI-1T complex had ~0.75-fold the fluorescence intensity of the mFAP10–DFHBI-1T complex (Supplementary Fig. 1k). In collecting fluorescence emission spectra by exciting fluorescence at λex = 484 nm and collecting fluorescence emission at λem = 495–650 nm (Supplementary Fig. 6b), and in measuring fluorescence endpoints in techincal triplicate at unique peak excitation and emission wavelengths (Supplementary Fig. 6c), 195 μL of large-scale purified protein[49] was combined with 5.00 μL of 25 mM Tris (pH 8.00) supplemented with 100 mM NaCl and 40.0 μM DFHBI for a final concentration of 10.0 μM protein and 1.00 μM DFHBI.
In measuring fluorescence intensity of small-scale purified proteins[49] (Supplementary Table 1), wells were excited at λex = 488 nm for DFHBI and DFHBI-1T and λex = 505 nm for DFHO, and fluorescence emission measured at λem = 510 nm for DFHBI and DFHBI-1T and λem = 545 nm for DFHO. […]

[2] = Ca2+-responsive mFAP Ca2+ titrations; type: binding
Protocol: In measuring Ca^2+ affinity of mFAPs on a Synergy Neo2 hybrid multi-mode reader (Fig. 4d, e, f and Supplementary Figs. 10c, f, i, 11c, f, i, 13c, f, i, 16b), large-scale purified proteins[49] were aliquoted in technical triplicate to a final concentration of 500 nM with 5.00 μM DFHBI in eleven serial dilutions ( 10 dilution factor) of CaCl2 (Sigma Aldrich) starting from either 900 mM or 90.0 mM CaCl2 (diluted using high-salt Tev cleavage buffer) including a twelfth condition without CaCl2. Final volumes were 200 μL in flat bottom, black polystyrene, non-binding surface 96-well microplates (Corning 3650). Fluorescence endpoints were measured using excitation wavelength λex = 484 nm and emission wavelength λem = 508 nm. Background fluorescence endpoints of wells with identical chromophore and CaCl2 concentrations lacking protein (substituted for equivalent volumes of high-salt Tev cleavage buffer) were measured in technical triplicate, averaged per condition, and subtracted from protein measurement averages of the same conditions.
For Ca^2+ titrations of EF4n_mFAP2a and EF4n_mFAP2b (Supplementary Fig. 13c), a small amount of Chelex 100 sodium form (Sigma Aldrich) was added to purified protein (produced by large-scale protein purification and SEC purification[49]) and nutated at 4 °C overnight. EF4n_mFAP2a was aliquoted in technical triplicate to a final concentration of 8.00 μM with 80.0 μM DFHBI and EF4n_mFAP2b was aliquoted in technical triplicate to a final concentration of 6.25 μM with 43.4 μM DFHBI, in eleven serial dilutions ( 10 dilution factor) of CaCl2 starting from 9.00 mM or 4.00 mM CaCl2 (diluted using high-salt Tev cleavage buffer pre-treated with Chelex 100) including a twelfth condition without CaCl2. Final volumes were 25.0 μL in flat bottom, black polystyrene, non-binding surface 96-well half-area microplates (Corning 3686) or 200 μL in flat bottom, black polystyrene, non-binding surface 96-well microplates (Corning 3650). Fluorescence endpoints were measured for EF4n_mFAP2a using excitation wavelength λex = 478 nm and emission wavelength λem = 520 nm, and for EF4n_mFAP2b using excitation wavelength λex = 484 nm and emission wavelength λem = 508 nm. Background fluorescence endpoints of wells with identical chromophore and CaCl2 concentrations lacking protein (substituted for equivalent volumes of high-salt Tev cleavage buffer) were measured in technical triplicate, averaged per condition, and subtracted from protein measurement averages of the same conditions. For non-linear least squares fitting to obtain Kd values, means were fit to a single-binding site isotherm function where Ca^2+-binding sites were modeled independently with a Hill coefficient of 1.

B1: mFAP3: brightest DFHO-binding variant (protein)
chain: SRAAQLLPGTWQATFTNEDGQTSQGQWHFQPRSPYTMDIVAQGTISDGRPIVGYGKATVKTPDTLDIDITWPSLGNIKGQGQITMDSPTQFKWDGTTKGENDFHGRLTGTLQRQE
[1]; 10.0 µM DFHO vs 10.0 µM DFHBI
  fluorescence intensity with DFHO, lower (dimmer) than mFAP2b with DFHBI: ~ 10 fold

B2: mFAP2.3: brightest variant of loop7 library (protein)
chain: SRAAQLLPGTWQVTMTNEDGQTSQGQMHFQPRSPYTMDVVAQGTISDGRPIVGYGKVTVKTPDTLDVDITYPSLGNIKAQGQITMDSPTQFKFDATTKGENDFHGRLTGTLQRQE
[1]; pH 7.36
  increase in fluorescence intensity from the phenolate form of DFHBI from mFAP2.2: ~ 1.1 fold

B3: EF1p2_mFAP2b: positively allosteric Ca2+-responsive mFAP, one EF-hand motif (protein)
chain: SRAAQLLPGTWQVTMTNEDGQTSQGQWHFQPRSPYTMDIVAQGTISDGRPIVGYGKATVKTPDTLDIDITYPSLGNIKAQGQITMDSPTQFKWDAHYKGDKDGDGYISAAEAAAQGLTGTLQRQE
[2]; Ca2+ titration with excess DFHBI
  Ca2+-responsiveness / allostery between DFHBI and Ca2+ binding: positive allostery
[2]; excess DFHBI compared to protein, Hill coefficient of 1
  Kd: 2300 µM
